The values below come from paper PMC5839545.

The target of assay [1] is mCherry-(s)-CENP-N (human) (UniProt Q96H22). The assay can be described thus: dual color fluorescence cross-correlation spectroscopy (DC-FCCS); EGFP and mCherry fusion proteins co-expressed in living interphase HEp-2 or U2OS cells; spots in the nucleoplasm free of kinetochores, focal volume bleached before; 37°C; 488 and 561 nm; corrected values are the measured ones times about two.

Assay [2] addresses Spc24/Spc25 137-197+129-224 (Homo sapiens) (UniProt Q8NBT2). The settings on record: cited from earlier work.
The target in assay [3] is mCherry-(s)-CENP-I (human) (UniProt Q92674). Nature of the assay: dual color fluorescence cross-correlation spectroscopy (DC-FCCS); EGFP and mCherry fusion proteins co-expressed in living interphase HEp-2 or U2OS cells; spots in the nucleoplasm free of kinetochores, focal volume bleached before; 37°C; 488 and 561 nm; corrected values are the measured ones times about two.

In assay [4] the target is mCherry-(s)-CENP-K (human) (UniProt Q9BS16). The assay is described as above.
Assay [5] concerns the target CENP-I-(s)-mCherry (human) (UniProt Q92674). Described as above.

Sequence of EGFP-(l)-CENP-M (Q9NSP4 whole entry): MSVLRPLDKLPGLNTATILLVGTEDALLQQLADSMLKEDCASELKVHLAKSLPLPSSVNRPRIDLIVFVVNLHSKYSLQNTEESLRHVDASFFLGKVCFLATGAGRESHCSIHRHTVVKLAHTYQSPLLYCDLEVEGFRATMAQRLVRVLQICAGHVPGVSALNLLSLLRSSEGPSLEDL
Sequence of mCherry-(s)-CENP-K (human) (Q9BS16 whole entry): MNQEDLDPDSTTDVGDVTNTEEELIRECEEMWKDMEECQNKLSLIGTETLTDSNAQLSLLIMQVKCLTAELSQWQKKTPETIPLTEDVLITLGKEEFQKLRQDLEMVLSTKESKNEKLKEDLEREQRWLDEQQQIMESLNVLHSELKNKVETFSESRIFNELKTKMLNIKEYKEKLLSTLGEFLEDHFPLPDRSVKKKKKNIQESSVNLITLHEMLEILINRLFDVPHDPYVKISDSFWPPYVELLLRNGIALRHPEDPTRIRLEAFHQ
Sequence of mCherry-(s)-CENP-I (human) (Q92674 whole entry, the tested form may be a part): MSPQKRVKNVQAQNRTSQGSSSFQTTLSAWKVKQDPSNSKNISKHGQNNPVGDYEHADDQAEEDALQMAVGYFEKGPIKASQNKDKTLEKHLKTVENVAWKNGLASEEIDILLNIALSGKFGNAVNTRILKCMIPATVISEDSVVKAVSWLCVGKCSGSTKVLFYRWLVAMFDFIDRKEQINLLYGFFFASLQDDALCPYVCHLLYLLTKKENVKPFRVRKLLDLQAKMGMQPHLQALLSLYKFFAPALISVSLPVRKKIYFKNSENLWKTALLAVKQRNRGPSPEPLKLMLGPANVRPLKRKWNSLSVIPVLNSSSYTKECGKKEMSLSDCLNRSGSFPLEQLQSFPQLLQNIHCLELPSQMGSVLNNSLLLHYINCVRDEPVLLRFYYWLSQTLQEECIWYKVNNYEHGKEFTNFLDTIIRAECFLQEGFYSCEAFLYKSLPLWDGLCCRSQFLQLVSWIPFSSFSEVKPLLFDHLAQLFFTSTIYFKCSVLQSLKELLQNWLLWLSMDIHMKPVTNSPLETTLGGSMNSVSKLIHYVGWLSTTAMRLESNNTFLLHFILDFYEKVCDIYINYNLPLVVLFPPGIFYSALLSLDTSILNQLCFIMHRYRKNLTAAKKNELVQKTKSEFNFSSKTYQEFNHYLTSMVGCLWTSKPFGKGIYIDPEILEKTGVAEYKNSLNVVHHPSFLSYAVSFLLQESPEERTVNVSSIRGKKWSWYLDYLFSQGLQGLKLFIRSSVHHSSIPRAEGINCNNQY
Sequence of mCherry-(s)-CENP-N (human) (Q96H22 whole entry, the tested form may be a part): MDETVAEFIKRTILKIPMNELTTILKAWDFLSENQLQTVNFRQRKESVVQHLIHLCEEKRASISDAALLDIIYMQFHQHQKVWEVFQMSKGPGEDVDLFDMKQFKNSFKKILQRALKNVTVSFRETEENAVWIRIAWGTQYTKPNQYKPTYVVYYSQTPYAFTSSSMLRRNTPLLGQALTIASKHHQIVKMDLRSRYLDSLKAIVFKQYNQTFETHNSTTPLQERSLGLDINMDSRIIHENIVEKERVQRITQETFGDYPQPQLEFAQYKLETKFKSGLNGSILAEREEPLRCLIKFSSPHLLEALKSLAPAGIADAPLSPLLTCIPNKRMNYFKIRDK
Sequence of CENP-T 76-106 (Q96BT3 76-106): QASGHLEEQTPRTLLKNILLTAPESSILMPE
Sequence of EGFP-(l)-CENP-L (Q8N0S6 whole entry): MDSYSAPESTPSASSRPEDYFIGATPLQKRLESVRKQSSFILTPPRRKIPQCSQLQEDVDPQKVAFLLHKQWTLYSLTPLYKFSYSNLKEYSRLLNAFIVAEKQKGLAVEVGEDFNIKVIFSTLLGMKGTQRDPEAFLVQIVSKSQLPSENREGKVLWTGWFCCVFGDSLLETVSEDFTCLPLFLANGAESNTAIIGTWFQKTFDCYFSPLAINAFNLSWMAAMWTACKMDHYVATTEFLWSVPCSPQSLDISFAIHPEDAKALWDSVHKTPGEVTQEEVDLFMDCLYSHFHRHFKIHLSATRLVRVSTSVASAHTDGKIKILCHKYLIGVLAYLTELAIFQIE
Sequence of CENP-I-(s)-mCherry (human) (Q92674 whole entry): as the sequence (Q92674 whole entry, the tested form may be a part) above
Sequence of Spc24/Spc25 137-197+129-224 (Homo sapiens) (Q8NBT2 whole entry, chain 1 of 2, the tested form may be a part): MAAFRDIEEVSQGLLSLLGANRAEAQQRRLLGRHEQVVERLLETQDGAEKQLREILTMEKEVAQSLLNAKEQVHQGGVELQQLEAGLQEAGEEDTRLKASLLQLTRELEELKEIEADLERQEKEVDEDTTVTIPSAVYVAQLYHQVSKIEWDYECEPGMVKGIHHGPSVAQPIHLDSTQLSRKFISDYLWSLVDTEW
Sequence of Spc24/Spc25 137-197+129-224 (Homo sapiens) (Q9HBM1 whole entry, chain 2 of 2, further chain, the tested form may be a part): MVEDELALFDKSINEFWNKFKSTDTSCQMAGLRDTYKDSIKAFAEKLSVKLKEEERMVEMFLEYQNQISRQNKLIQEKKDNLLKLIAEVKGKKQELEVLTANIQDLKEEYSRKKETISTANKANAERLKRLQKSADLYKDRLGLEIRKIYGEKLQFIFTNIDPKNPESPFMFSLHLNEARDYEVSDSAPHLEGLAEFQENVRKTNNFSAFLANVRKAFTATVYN

In assay [1], “CENP-K-(s)-EGFP (from UniProt Q9BS16 1-269) (natural protein)” yielded a cross-correlation, measured (%) of 26%.
For the substance CENP-T 76-106 (from UniProt Q96BT3), the Kd in assay [2] was 645 nM.
For “EGFP-(l)-CENP-L (from UniProt Q8N0S6 1-344) (natural protein; other documents disagree on this pair)”, in assay [1], the cross-correlation, measured (%) stood at 23%.
“EGFP-(l)-CENP-M (from UniProt Q9NSP4 1-180) (natural protein)”: the cross-correlation, measured (%) in assay [3] worked out at 24%. In assay [4], this substance gave a co-migration in one cell (%) of 49%; a cross-correlation, corrected (%) of 56 to 92%; a cross-correlation, measured (%) of 37%.
Take “EGFP-(s)-CENP-H (from UniProt Q9H3R5 1-247) (natural protein)”: the cross-correlation, measured (%) in assay [5] was 22%.
“EGFP-(s)-CENP-K (from UniProt Q9BS16 1-269) (natural protein)” returned a cross-correlation, measured (%) in assay [3] of 20%.

As a reminder, the Kd is a measure of binding affinity in units of concentration.
